According to the supplement of paper PMC10567573:

B1: STK38L (parent)
chain: FLPGGDMMTLLMKKDTLTEEETQF

Variants of: B1
Experiment: protein stability index of a GFP-peptide fusion (GPS, HEK-293T) (PSI 1-6); higher = more stable
Settings: c terminus: a fixed tail appended
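Further: lentivirally expressed fusions sorted by FACS into six bins by GFP to DsRed ratio, PSI derived from sequencing read proportions per bin multiplied by bin number.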

Row | Variant | protein stability index
1 | FLPGGDMMTLLMKKDTLTPEETQF [E19P] | 2.11
2 | FLPGGDMMTLLMKKDTLTYEETQF [E19Y] | 1.9
3 | FLPGGDMMTLLMKKDTLTAEETQF [E19A] | 2.13
4 | FLPGGDMMTLLMKKDTLTLEETQF [E19L] | 1.62
5 | FLPGGDMMTLLMKKDTLTDEETQF [E19D] | 2.42
6 | FLPGGDMMTLLMKKDTLTHEETQF [E19H] | 2.01
7 | FLPGGDMMTLLMKKDTLTCEETQF [E19C] | 1.73
8 | FLPGGDMMTLLMKKDTLTMEETQF [E19M] | 1.66
9 | FLPGGDMMTLLMKKDTLTIEETQF [E19I] | 2.02
10 | FLPGGDMMTLLMKKDTLTTEETQF [E19T] | 1.51
11 | FLPGGDMMTLLMKKDTLTSEETQF [E19S] | 2.61
12 | FLPGGDMMTLLMKKDTLTQEETQF [E19Q] | 2.12
13 | FLPGGDMMTLLMKKDTLTKEETQF [E19K] | 1.97
14 | FLPGGDMMTLLMKKDTLTREETQF [E19R] | 1.78
15 | FLPGGDMMTLLMKKDTLTFEETQF [E19F] | 1.87
16 | FLPGGDMMTLLMKKDTLTWEETQF [E19W] | 2.14
17 | FLPGGDMMTLLMKKDTLTNEETQF [E19N] | 1.72
18 | FLPGGDMMTLLMKKDTLTGEETQF [E19G] | 2.35
19 | FLPGGDMMTLLMKKDTLTEVETQF [E20V] | 1.79
20 | FLPGGDMMTLLMKKDTLTESETQF [E20S] | 1.68
21 | FLPGGDMMTLLMKKDTLTEYETQF [E20Y] | 2.08
22 | FLPGGDMMTLLMKKDTLTEQETQF [E20Q] | 1.76
23 | FLPGGDMMTLLMKKDTLTEGETQF [E20G] | 1.6
24 | FLPGGDMMTLLMKKDTLTERETQF [E20R] | 1.95

Row | Variant | protein stability index
25 | FLPGGDMMTLLMKKDTLTETETQF [E20T] | 1.86
26 | FLPGGDMMTLLMKKDTLTEFETQF [E20F] | 1.97
27 | FLPGGDMMTLLMKKDTLTEHETQF [E20H] | 1.97
28 | FLPGGDMMTLLMKKDTLTEAETQF [E20A] | 1.86
29 | FLPGGDMMTLLMKKDTLTECETQF [E20C] | 2.27
30 | FLPGGDMMTLLMKKDTLTEKETQF [E20K] | 1.75
31 | FLPGGDMMTLLMKKDTLTEWETQF [E20W] | 1.66
32 | FLPGGDMMTLLMKKDTLTENETQF [E20N] | 2.5
33 | FLPGGDMMTLLMKKDTLTEDETQF [E20D] | 2.45
34 | FLPGGDMMTLLMKKDTLTEMETQF [E20M] | 1.89
35 | FLPGGDMMTLLMKKDTLTEIETQF [E20I] | 1.4
36 | FLPGGDMMTLLMKKDTLTELETQF [E20L] | 1.13
37 | FLPGGDMMTLLMKKDTLTEPETQF [E20P] | 1.82
38 | FLPGGDMMTLLMKKDTLTEEEEQF [T22E] | 3.21
39 | FLPGGDMMTLLMKKDTLTEEEWQF [T22W] | 2.4
40 | FLPGGDMMTLLMKKDTLTEEESQF [T22S] | 2.37
41 | FLPGGDMMTLLMKKDTLTEEEPQF [T22P] | 1.69
42 | FLPGGDMMTLLMKKDTLTEEEDQF [T22D] | 2.12
43 | FLPGGDMMTLLMKKDTLTEEEHQF [T22H] | 2.06
44 | FLPGGDMMTLLMKKDTLTEEERQF [T22R] | 2.37
45 | FLPGGDMMTLLMKKDTLTEEEGQF [T22G] | 2.08
46 | FLPGGDMMTLLMKKDTLTEEEIQF [T22I] | 2.35
47 | FLPGGDMMTLLMKKDTLTEEEAQF [T22A] | 2.53
48 | FLPGGDMMTLLMKKDTLTEEELQF [T22L] | 2.12

Row | Variant | protein stability index
49 | FLPGGDMMTLLMKKDTLTEEENQF [T22N] | 2.31
50 | FLPGGDMMTLLMKKDTLTEEEQQF [T22Q] | 2.21
51 | FLPGGDMMTLLMKKDTLTEEEVQF [T22V] | 2.23
52 | FLPGGDMMTLLMKKDTLTEEEKQF [T22K] | 2.18
53 | FLPGGDMMTLLMKKDTLTEEECQF [T22C] | 2.05
54 | FLPGGDMMTLLMKKDTLTEEEMQF [T22M] | 1.97
55 | FLPGGDMMTLLMKKDTLTEEEYQF [T22Y] | 2.75
56 | FLPGGDMMTLLMKKDTLTEEEFQF [T22F] | 2.25
57 | FLPGGDMMTLLMKKDTITEEETQF [L17I] | 2.11
58 | FLPGGDMMTLLMKKDTKTEEETQF [L17K] | 2.51
59 | FLPGGDMMTLLMKKDTTTEEETQF [L17T] | 2.63
60 | FLPGGDMMTLLMKKDTFTEEETQF [L17F] | 1.96
61 | FLPGGDMMTLLMKKDTCTEEETQF [L17C] | 2.36
62 | FLPGGDMMTLLMKKDTVTEEETQF [L17V] | 1.94
63 | FLPGGDMMTLLMKKDTATEEETQF [L17A] | 2.95
64 | FLPGGDMMTLLMKKDTNTEEETQF [L17N] | 2.78
65 | FLPGGDMMTLLMKKDTPTEEETQF [L17P] | 2.46
66 | FLPGGDMMTLLMKKDTSTEEETQF [L17S] | 2.59
67 | FLPGGDMMTLLMKKDTWTEEETQF [L17W] | 1.75
68 | FLPGGDMMTLLMKKDTQTEEETQF [L17Q] | 1.98
69 | FLPGGDMMTLLMKKDTYTEEETQF [L17Y] | 2
70 | FLPGGDMMTLLMKKDTHTEEETQF [L17H] | 2.26
71 | FLPGGDMMTLLMKKDTGTEEETQF [L17G] | 2.37
72 | FLPGGDMMTLLMKKDTRTEEETQF [L17R] | 2.39

Row | Variant | protein stability index
73 | FLPGGDMMTLLMKKDTETEEETQF [L17E] | 3.35
74 | FLPGGDMMTLLMKKDTDTEEETQF [L17D] | 3.2
75 | FLPGGDMMTLLMKKDTMTEEETQF [L17M] | 2.53
76 | FLPGGDMMTLLMKADTLTEEETQF [K14A] | 2.48
77 | FLPGGDMMTLLMKNDTLTEEETQF [K14N] | 1.81
78 | FLPGGDMMTLLMKRDTLTEEETQF [K14R] | 1.96
79 | FLPGGDMMTLLMKWDTLTEEETQF [K14W] | 1.7
80 | FLPGGDMMTLLMKFDTLTEEETQF [K14F] | 2.39
81 | FLPGGDMMTLLMKEDTLTEEETQF [K14E] | 2.88
82 | FLPGGDMMTLLMKMDTLTEEETQF [K14M] | 1.97
83 | FLPGGDMMTLLMKCDTLTEEETQF [K14C] | 2.55
84 | FLPGGDMMTLLMKVDTLTEEETQF [K14V] | 1.62
85 | FLPGGDMMTLLMKDDTLTEEETQF [K14D] | 2.92
86 | FLPGGDMMTLLMKSDTLTEEETQF [K14S] | 2.69
87 | FLPGGDMMTLLMKIDTLTEEETQF [K14I] | 1.96
88 | FLPGGDMMTLLMKPDTLTEEETQF [K14P] | 2.46
89 | FLPGGDMMTLLMKYDTLTEEETQF [K14Y] | 2.09
90 | FLPGGDMMTLLMKLDTLTEEETQF [K14L] | 1.89
91 | FLPGGDMMTLLMKGDTLTEEETQF [K14G] | 2.25
92 | FLPGGDMMTLLMKTDTLTEEETQF [K14T] | 2.27
93 | FLPGGDMMTLLMKHDTLTEEETQF [K14H] | 2.38
94 | FLPGGDMMTLLMKQDTLTEEETQF [K14Q] | 2.18
